B1: varA RNA oligonucleotide (ssRNA)
RNA: AAGUGUGGAGAUACAAGUUUGAUUAGUGUUUUCCUUGUAGAUGAUCACGAGCUGGUUCGCACAGGGAUACGACGUAUUAUUGAAGACGUCCGUGGAAUGAAAGUAGCAGGGGAAGCUGAC
B2: atpI RNA oligonucleotide (ssRNA)
RNA: AAAAUUGUAACUUUUUGCGGUGUUUUCAUUGCAAUCAGUUGAUGCCACCGUAUAAUUUUCGCCAAUUUCCCAGUCCGAAAAAGCGGUUCGAGCUGUGGUGAUUACUAGAGGUAAGAAUAC

Assays:
[1] = target: T1, CsrA (Vibrio cholerae, UniProt Q9KUH3 1-65); assay: EMSA; shift seen at 1.6 nM CsrA, increasing at 8 and 40 nM; LightShift chemiluminescent RNA EMSA kit per manufacturer, 10 ul volume; 12% nondenaturing PAGE; buffer, salt, pH and temperature not stated; details: protein: recombinant; tags: N-terminal His-TEV tag removed by TEV protease; chain copies: 2; label: 5' biotin
T1 sequence (Q9KUH3 whole entry): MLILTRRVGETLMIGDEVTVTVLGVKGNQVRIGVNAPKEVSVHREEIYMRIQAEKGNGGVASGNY

[2] = target: T1, CsrA; assay: EMSA; CsrA up to 40 nM; LightShift chemiluminescent RNA EMSA kit per manufacturer, 10 ul volume; 12% nondenaturing PAGE; buffer, salt, pH and temperature not stated; details: protein: recombinant; tags: N-terminal His-TEV tag removed by TEV protease; chain copies: 2; label: 5' biotin

| Binder | binding result [1] | binding result [2] |
| --- | --- | --- |
| B1 | binds | – |
| B2 | – | no binding |

From publication PMC6550530
